Experiment [1] addresses T1, C-10 peptide (C-10 PSMGFR).
T1 construct: also called PSMGFR C-10
T1 peptide: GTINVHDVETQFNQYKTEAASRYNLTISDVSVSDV
Kind of experiment: binding to peptides (ELISA, FIG. 39). The method, then:
(§1) All monoclonal antibodies were first selected based on their ability to bind to the immunizing peptide. To further elucidate the epitope within that peptide to which the antibody binds, antibodies were tested for their ability to bind to the PSMGFR peptide, the N−10 peptide or the C−10 peptide.
In general terms: ELISA stands for enzyme-linked immunosorbent assay.

Experiment [2] has as its target T2, N-10 peptide (N-10 PSMGFR).
T2 construct: also called PSMGFR N-10
T2 peptide: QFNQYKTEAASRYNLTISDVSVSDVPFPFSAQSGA
The experiment in a line: peptide binding, told in text.

The target in experiment [3] is T3, PSMGFR peptide (Primary Sequence of the MUC1 Growth Factor Receptor).
T3 peptide: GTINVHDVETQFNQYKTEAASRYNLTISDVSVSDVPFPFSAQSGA
The experiment in a line: selection of clones on the immunizing peptide.

Experiment [4] has as its target T2, N-10 peptide (N-10 PSMGFR). Kind of experiment: peptide binding, told in legend.
The next experiment deals with T4, PSMGFR N+20/C-27 peptide.
T4 construct: also called N+20/C-27 PSMGFR
T4 peptide: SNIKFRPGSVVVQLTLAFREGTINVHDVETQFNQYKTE
The experiment in a line: selection of clones on the immunizing peptide.

The next experiment addresses T5, PSMGFR N+9/C-9 peptide.
T5 peptide: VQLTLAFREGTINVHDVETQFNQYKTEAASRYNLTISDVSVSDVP
Kind of experiment: selection of clones on the immunizing peptide.

Experiment [5] deals with T2, N-10 peptide (N-10 PSMGFR). The experiment in a line: ELISA on peptides (FIG. 39). On the procedure:
as §1

The target of experiment [6] is T1, C-10 peptide (C-10 PSMGFR). Kind of experiment: ELISA on peptides.

Substitutions are numbered along the chain they refer to.

B1: 20A10 monoclonal anti-MUC1* antibody (antibody, V domains shown)
VH: EVMLVESGGGLVKPGGSLKLSCAASGFTFSTYAMSWIRQTPEKRLEWVASIGRAGSTYYSDSVKGRFTISRDNVRNILYLQMSSLRSEDTAMYYCARGPIYNDYDEFAYWGQGTLVTVSA
VL: NIMMTQSPSSLAVSAGEKVTMSCKSSQSVLYSSNQKNYLAWYQQKPGQSPKLLIYWASTRESGVPDRFTGSGSGTDFTLTISSVQAEDLAVYYCHQYLSSLTFGAGTKLELK
notes: Immunogen PSMGFR peptide; also called Antibody 20A10
Turning to B1, the binding result in experiment [1] was “no binding”; in experiment [2] it was “binds”; in experiment [3] it was “binds”.

B2: 25E6 monoclonal anti-MUC1* antibody (antibody, V domains shown)
VH: EVQLVESGGDLVKPGGSLKLSCAASGFTFSSYGMSWVRQTPDKRLEWVATISNGGRHTFYPDSVKGRFTISRDNAKNTLYLQMSSLKSEDTAMYLCVRQTGTEGWFAYWGQGTLVTVSA
VL: not shown
notes: Immunogen PSMGFR peptide; also called Antibody 25E6
For B2, the binding result in experiment [3] and in experiment [4] was “binds” each time.

B3: 31A1 monoclonal anti-MUC1* antibody (antibody, V domains shown)
VH: QVQLQQSGAELAKPGASVKMSCKASGYTFTSYWMHWVKQRPGQGLEWIGYINPSTGYTEYNQKFKDKATLTADKSSSTAYMQLSSLTSEDSAVYYCARAYIDYWGQGTTLTVSS
VL: DVLMTQTPLSLPVSLGDQASFSCRSSQSIVHSNGNTYLEWYLQKPGQSPKLLIYKVSNRFSGVPDRFSGSGSGTDFTLKINRVEAEDLGVYYCFQVSHFPWTFGGGTKLEIK
notes: Immunogen PSMGFR N+20/C-27 peptide; also called Antibody 31A1
As to B3, in the experiment with PSMGFR N+20/C-27 peptide, the binding result is “binds”.

B4: 39H5 monoclonal anti-MUC1* antibody (antibody, V domains shown)
VH: QIQLVQSGPELKKPGETVKISCKASGYTFTNYGMNWVKQAPGKGLKWMGWINTYTGEPTYVGDFKGRFAFSLETSASTAYLQINNLKNEDTATYFCVRGIHGYVDYWGQGTTLTVSS
VL: B3 VL with F21I, S32R, N81S, V96G, F99L
notes: Immunogen PSMGFR N+9/C-9 peptide; also called Antibody 39H5
As to B4, the binding result with PSMGFR N+9/C-9 peptide was “binds”.

B5: 18B4 monoclonal anti-MUC1* antibody (antibody, V domains shown)
VH: EVKLEESGGGLVQPGGSMKLSCAASGFTFNDAWMDWVRQSPEKGLEWVAEIRSTANIHTTYYAESVQGRFTISRDDSKSSVYLQMNSLRAEDTGIYYCTPLLYGFAYWGQGTLVTVSA
VL: DVVMTQSPLSLPVSLGDQASISCRTSQSLVHSNGNTYLHWHLQKPGQSPKVLIYKVSSRFSGVPDRFSGSGSGTDFTLKISRVEAEDLGVYFCSQNTHVPYTFGGGTKLEIK
notes: Immunogen PSMGFR peptide; also called Antibody 18B4
B5: the binding result in experiment [5] is recorded as “no binding”; in experiment [6], “binds”; in experiment [3], “binds”.

B6: 1E4 monoclonal anti-MUC1* antibody (antibody, V domains shown)
VH: QVQLQQSGAELVRPGSSVKISCKASGYAFSTYWMNWVKQRPGQGLEWIGQIYPGDSDTNYNGKFKGKATLTADKSSNTAYMQLSSLTSEDSAVFFCARGNHASMDYWGQGTSVTVSS
VL: B5 VL with S7T, T25S, H41Y, V51L, S58N, N96K, Y101W
notes: Immunogen PSMGFR N+20/C-27 peptide; also called Antibody 1E4
Turning to B6, the binding result in the experiment with PSMGFR N+20/C-27 peptide is given as “binds”.

B7: 29H1 monoclonal anti-MUC1* antibody (antibody, V domains shown)
VH: B5 VH with N30S, T54K, N56T, I57N, T59A, Q67K
VL: DVVMTQTPLSLPVSLGDQASISCRSGQSLVHSNGHTYLHWYLQKPGQSPRLLIYKVSNRFSGVPDRFSGSGSRADFTLKISRVEAEDLGVYFCSQTTHVPWTFGGGTKLEIK
notes: Immunogen PSMGFR N+20/C-27 peptide; also called Antibody 29H1
As for B7, in the experiment with PSMGFR N+20/C-27 peptide, the binding result is “binds”.

B8: 32C1 monoclonal anti-MUC1* antibody (antibody, V domains shown)
VH: EVKLEESGGGLVQSGGSMKLSCVASGFTFSNYWMNWVRQSPEKGLEWVAEIRLKSNNYAIHYAESVKGRFTISRDDSKSSVYLQMNNLRAEDTGIYYCTRVPGLDAYWGQGTLVTVSA
VL: B5 VL with S7T, T25S, H41Y, V51L, S58N, R82S, N96I, K108N
notes: Immunogen PSMGFR N+20/C-27 peptide; also called Antibody 32C1
With B8, in the experiment with PSMGFR N+20/C-27 peptide, the binding result is “binds”.

B9: 18G12 monoclonal anti-MUC1* antibody (antibody, V domains shown)
VH: QVQLQQSGAELVKPGASVKLSCKASGYTFTGYFLYWVKQRPGQGLEWIGGINPDNGGIDFNEKFRNKATLTVDKSSSTAYMQLSSLTSEDSAVYYCTLLIGNYWGQGTTLTVSS
VL: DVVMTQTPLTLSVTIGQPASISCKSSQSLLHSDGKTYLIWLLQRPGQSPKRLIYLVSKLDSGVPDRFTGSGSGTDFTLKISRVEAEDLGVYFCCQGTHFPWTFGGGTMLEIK
notes: Immunogen PSMGFR peptide; also called Antibody 18G12
Turning to B9, the binding result in experiment [6] and in experiment [3] was “binds” each time.

B10: 28F9 monoclonal anti-MUC1* antibody (antibody, V domains shown)
VH: B9 VH with S7P, K13Q, Q43H, N52H, D54S, G57D, I58T, R65K, K74I, N102V
VL: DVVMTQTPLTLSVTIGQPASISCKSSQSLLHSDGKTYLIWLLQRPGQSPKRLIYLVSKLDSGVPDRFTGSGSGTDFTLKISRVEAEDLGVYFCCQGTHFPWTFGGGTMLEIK
notes: Anti-PSMGFR antibody; also called Antibody 28F9
Regarding B10, the binding result in experiment [6] and in experiment [3] was “binds” throughout.

B11: 3C5 monoclonal anti-MUC1* antibody (antibody, V domains shown)
VH: QIQLVQSGPELKKPGETVKISCKASGYTFTNYGMNWVKQAPGKGLKWMGWINTYTGKPTYADDFKGRFAFSLETSASTAYLQINNLKNEDTATYFCARGGLDGYYGYWGQGTTLTVSS
VL: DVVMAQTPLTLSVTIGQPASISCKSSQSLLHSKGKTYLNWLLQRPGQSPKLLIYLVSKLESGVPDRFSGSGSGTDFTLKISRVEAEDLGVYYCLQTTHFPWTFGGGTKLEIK
notes: Immunogen PSMGFR N+9/C-9 peptide; also called Antibody 3C5
In the case of B11, in the experiment with PSMGFR N+9/C-9 peptide, the binding result was “binds”.

The values are drawn from patent US20200407462A1 (MINERVA BIOTECHNOLOGIES, published 2020).
